Results reported in patent US20250340631A1 (HARBOUR BIOMED SHANGHAI, published 2025).
Where a chain is given by its changes, count along the chain named. Blank lines part the entries; values can stand above or below the binder they belong to.

What was measured:
[1] = biological target: T1, human CLDN18.1 (human, UniProt P56856 1-261); assay: FACS on HEK293/hCLDN18.1 cells
T1 construct: whole, on cells; also called hCLDN18.1
Description: (§1) Antibodies were assayed for binding affinity by FACS. Test cells include HEK293/hCLDN18.2, HEK293/hCLDN18.1, NUGC4_D8 and Jurkat cells. […] The cell density was adjusted to 10⁶ cells/mL, and 50 μL of the cell suspension was added to each well of a 96-well plate. Antibodies were diluted to different concentrations with FACS buffer, and 50 μL of the antibody dilution was added to each well of the 96-well plate. After 2 h of incubation at 4° C., the plate was washed twice with FACS buffer. […] After 1 h of incubation at 4° C., the plate was washed twice with FACS buffer. The cells were resuspended in fixative solution, and then the fluorescence of the cells was monitored using an FACS instrument (ACEA NovoCyte).

[2] = biological target: T2, human CD3 on Jurkat cells (human, UniProt P07766 23-207); assay: FACS on Jurkat cells
T2 construct: whole, on cells; on cells it stands in the whole CD3/TCR complex; also called CD3-expressing cells
Description: as §1

[3] = biological target: T3, human CLDN18.2 (human); assay: FACS on NUGC4_D8 cells
T3 construct: the HEK293 line was made with a GenScript plasmid; also called hCLDN18.2
Description: as §1

[4] = biological target: T3, human CLDN18.2; assay: cell-based or functional assay
[5] = biological target: T2, human CD3 on Jurkat cells; assay: FACS on Jurkat cells (CD3)
Description: as §1

[6] = biological target: T3, human CLDN18.2; assay: FACS on HEK293/hCLDN18.2 cells
Description: as §1

T2 sequence (P07766 23-207): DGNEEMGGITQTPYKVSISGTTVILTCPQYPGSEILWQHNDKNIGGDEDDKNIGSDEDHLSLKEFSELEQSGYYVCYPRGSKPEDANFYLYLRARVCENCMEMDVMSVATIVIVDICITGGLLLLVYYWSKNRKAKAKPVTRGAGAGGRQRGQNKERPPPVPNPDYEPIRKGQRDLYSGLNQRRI
T1 sequence (P56856 whole entry): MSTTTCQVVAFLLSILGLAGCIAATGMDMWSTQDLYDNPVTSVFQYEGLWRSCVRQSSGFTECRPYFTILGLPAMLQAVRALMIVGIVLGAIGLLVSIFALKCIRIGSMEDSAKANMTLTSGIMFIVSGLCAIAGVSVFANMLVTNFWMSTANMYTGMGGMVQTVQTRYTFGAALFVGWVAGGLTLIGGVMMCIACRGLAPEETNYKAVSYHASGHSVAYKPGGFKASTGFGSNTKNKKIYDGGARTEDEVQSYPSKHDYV

binding result [1]: no binding
binding result [2]: binds
EC50 [3]: 13.9 nM
TDCC, Titer EC50 (pM), NUGC4_D8 [4]: 22.4 pM
B1: PR005520 (bispecific antibody)
chain 1: EVQLVESGGGLVQPGGSLRLSCAASGFTFSSYWMHWVRQVPGKGLVWVSRINSDGSRTIYADSVKGRFTISRDNAKNTLYLQMNSLRAEDTAVYYCARGEDHDILTGYPIRGQGTTVTVSSGGGGSGGGGSGGGGSEVQLVESGGGLVQPGGSLRLSCAASGFTFSSYWMHWVRQVPGKGLVWVSRINSDGSRTIYADSVKGRFTISRDNAKNTLYLQMNSLRAEDTAVYYCARGEDHDILTGYPIRGQGTTVTVSSASEPKSSDKTHTCPPCPAPEAAGGPSVFLFPPKPKDTLMISRTPEVTCVVVDVSHEDPEVKFNWYVDGVEVHNAKTKPREEQYNSTYRVVSVLTVLHQDWLNGKEYKCKVSNKALPAPIEKTISKAKGQPREPQVCTLPPSREEMTKNQVSLSCAVKGFYPSDIAVEWESNGQPENNYKTTPPVLDSDGSFFLVSKLTVDKSRWQQGNVFSCSVMHEALHNHYTQKSLSLSPGK
chain 2: not shown
light: QAVVTQEPSLTVSPGGTVTLTCRSSTGAVTTSNYANWVQQKPGQAPRGLIGGTNKRAPWTPARFSGSLLGDKAALTLLGAQPEDEAEYFCALWYSNLWVFGGGTKLTVLGQPKAAPSVTLFPPSSEELQANKATLVCLISDFYPGAVTVAWKADSSPVKAGVETTTPSKQSNNKYAASSYLSLTPEQWKSHRSYSCQVTHEGSTVEKTVAPTECS
notes: PR001848 / PR004533; LALA

binding result [5]: binds
EC50 [6]: 9.6 nM
B2: PR007083 (bispecific antibody, human IgG1, lambda)
chain: B1 chain 1 with S49C, N52S, G55A, I70C, S185C, N188S, G191A, I206C, G281A
heavy: EVQLVESGGGLVQPGGSLKLSCAASGFTFSTYAMNWVRQASGKGLEWVGRIRSKYNNYATYYADSVKDRFTISRDDSKNTAYLQMNSLKTEDTAVYYCTRHGNFGNSYVSWFAYWGQGTLVTVSSASTKGPSVFPLAPSSKSTSGGTAALGCLVKDYFPEPVTVSWNSGALTSGVHTFPAVLQSSGLYSLSSVVTVPSSSLGTQTYICNVNHKPSNTKVDKKVEPKSCDKTHTCPPCPAPEAAGAPSVFLFPPKPKDTLMISRTPEVTCVVVDVSHEDPEVKFNWYVDGVEVHNAKTKPREEQYNSTYRVVSVLTVLHQDWLNGKEYKCKVSNKALPAPIEKTISKAKGQPREPQVYTLPPCREEMTKNQVSLWCLVKGFYPSDIAVEWESNGQPENNYKTTPPVLDSDGSFFLYSKLTVDKSRWQQGNVFSCSVMHEALHNHYTQKSLSLSPGK
light: B1 light
notes: structure 1; CD3 Fab from PR003886; AAA
